{"source": "the RNAGym collection of RNA variant scans (doi:10.7554/elife.80360)", "parents": {"B1": {"name": "HDV Ribozyme (parent)", "chain": "GGCCGGCAUGGUCCCAGCCUCCUCGCUGGCGCCGGCUGGGCAACAUUCCGAGGGGACCGUCCCCUCGGUAAUGGCGAAUGGGACCCA"}}}
{"variants_of": "B1", "test": "self-cleavage, relative activity (ratio to wild type); higher = more cleavage; co-transcriptional"}
{"variant": "C49A G82C", "self-cleavage": 0.222}
{"variant": "C49U A78G", "self-cleavage": 0.692}
{"variant": "C49A C66G", "self-cleavage": 0.96}
{"variant": "G50A A51U", "self-cleavage": 0.763}
{"variant": "G50A A51C", "self-cleavage": 0.991}
{"variant": "C49A A71G", "self-cleavage": 0.81}
{"variant": "C49G G76C", "self-cleavage": 0.982}
{"variant": "C49A A70U", "self-cleavage": 0.812}
{"variant": "C49A G68A", "self-cleavage": 0.742}
{"variant": "C49G A77G", "self-cleavage": 0.536}
{"variant": "C49G A77U", "self-cleavage": 0.604}
{"variant": "C49U U72G", "self-cleavage": 0.745}
{"variant": "C49U U72C", "self-cleavage": 0.554}
{"variant": "C49U U72A", "self-cleavage": 0.965}
{"variant": "G50A A77C", "self-cleavage": 0.227}
{"variant": "C49U A87C", "self-cleavage": 1.05}
{"variant": "C49G U79A", "self-cleavage": 0.895}
{"variant": "C49G U79G", "self-cleavage": 0.762}
{"variant": "C49U A56C", "self-cleavage": 0.773}
{"variant": "C49U A56G", "self-cleavage": 1.04}
{"variant": "C49U U69C", "self-cleavage": 0.831}
{"variant": "C49G G55U", "self-cleavage": 0.844}
{"variant": "C49U G54U", "self-cleavage": 0.87}
{"variant": "C49U G54C", "self-cleavage": 0.856}
{"variant": "C49A A87U", "self-cleavage": 0.857}
{"variant": "C49U G81C", "self-cleavage": 0.317}
{"variant": "C49A G54C", "self-cleavage": 0.843}
{"variant": "C49G A51U", "self-cleavage": 0.554}
{"variant": "C49U G82A", "self-cleavage": 0.436}
{"variant": "C49U G80A", "self-cleavage": 0.4}
{"variant": "C49G C58U", "self-cleavage": 1.05}
{"variant": "C49G C58G", "self-cleavage": 0.855}
{"variant": "C49A G67A", "self-cleavage": 1.27}
{"variant": "C49A C61G", "self-cleavage": 0.816}
{"variant": "C49G C75G", "self-cleavage": 0.299}
{"variant": "C49G A71C", "self-cleavage": 0.302}
{"variant": "C49U C63U", "self-cleavage": 0.958}
{"variant": "C49A G73C", "self-cleavage": 0.293}
{"variant": "C49A C57U", "self-cleavage": 1.15}
{"variant": "C49U A70G", "self-cleavage": 0.748}
{"variant": "C49U A70C", "self-cleavage": 0.782}
{"variant": "C49U A70U", "self-cleavage": 0.877}
{"variant": "C49A G52A", "self-cleavage": 0.739}
{"variant": "C49A G52U", "self-cleavage": 0.369}
{"variant": "C49U C85U", "self-cleavage": 0.799}
{"variant": "C49U C85G", "self-cleavage": 0.876}
{"variant": "C49U G74U", "self-cleavage": 0.507}
{"variant": "C49A C85U", "self-cleavage": 0.811}
{"variant": "C49A C85A", "self-cleavage": 1.13}
{"variant": "C49A A56U", "self-cleavage": 1.1}
{"variant": "C49G A56U", "self-cleavage": 0.96}
{"variant": "C49G A56G", "self-cleavage": 0.917}
{"variant": "C49U G52A", "self-cleavage": 0.96}
{"variant": "C49U G52C", "self-cleavage": 0.866}
{"variant": "C49A G53C", "self-cleavage": 0.506}
{"variant": "C49A G53A", "self-cleavage": 0.816}
{"variant": "C49G C62U", "self-cleavage": 0.831}
{"variant": "C49G C62A", "self-cleavage": 0.739}
{"variant": "C49U C62G", "self-cleavage": 0.665}
{"variant": "C49A A83C", "self-cleavage": 0.6}
{"variant": "C49G U72A", "self-cleavage": 0.0692}
{"variant": "C49G U72G", "self-cleavage": 0.604}
{"variant": "C49U C75G", "self-cleavage": 0.0723}
{"variant": "C49U C75U", "self-cleavage": 0.13}
{"variant": "C49U A71G", "self-cleavage": 1.16}
{"variant": "C49U A71U", "self-cleavage": 0.875}
{"variant": "C49U A71C", "self-cleavage": 0.641}
{"variant": "C49G C85G", "self-cleavage": 0.712}
{"variant": "C49G C85A", "self-cleavage": 0.789}
{"variant": "C49G C85U", "self-cleavage": 0.912}
{"variant": "C49U G76A", "self-cleavage": 1.08}
{"variant": "C49U G76U", "self-cleavage": 1.18}
{"variant": "C49U A77G", "self-cleavage": 0.95}
{"variant": "C49U A77U", "self-cleavage": 0.297}
{"variant": "C49G G82A", "self-cleavage": 0.0966}
{"variant": "C49U C57G", "self-cleavage": 1.19}
{"variant": "C49U C57U", "self-cleavage": 1.18}
{"variant": "C49G C64G", "self-cleavage": 0.308}
{"variant": "C49G G80A", "self-cleavage": 0.465}
{"variant": "C49G G80C", "self-cleavage": 0.178}
{"variant": "C49G G80U", "self-cleavage": 0.123}
{"variant": "C49G G59U", "self-cleavage": 0.889}
{"variant": "C49G G59C", "self-cleavage": 0.793}
{"variant": "C49U G67U", "self-cleavage": 0.859}
{"variant": "C49U G67A", "self-cleavage": 0.891}
{"variant": "C49U C84U", "self-cleavage": 0.676}
{"variant": "C49A G74C", "self-cleavage": 0.0755}
{"variant": "C49U U65A", "self-cleavage": 0.966}
{"variant": "C49U U79G", "self-cleavage": 0.688}
{"variant": "C49U U79C", "self-cleavage": 0.47}
{"variant": "C49A A78C", "self-cleavage": 0.116}
{"variant": "C49G A78C", "self-cleavage": 0.262}
{"variant": "C49G A78U", "self-cleavage": 0.138}
{"variant": "C49G C66A", "self-cleavage": 0.773}
{"variant": "C49U C86A", "self-cleavage": 0.793}
{"variant": "C49U G73U", "self-cleavage": 0.509}
{"variant": "C49G A87C", "self-cleavage": 0.672}
{"variant": "C49A G76U", "self-cleavage": 1.01}
{"variant": "C49A G76A", "self-cleavage": 0.991}
{"variant": "C49U C61A", "self-cleavage": 0.76}
{"variant": "C49U C61G", "self-cleavage": 0.731}
{"variant": "C49G G81C", "self-cleavage": 0.196}
{"variant": "C49U G59U", "self-cleavage": 0.858}
{"variant": "C49U G59A", "self-cleavage": 0.935}
{"variant": "C49U G59C", "self-cleavage": 0.799}
{"variant": "C49A C64U", "self-cleavage": 0.831}
{"variant": "G50A A70G", "self-cleavage": 0.763}
{"variant": "G50A A70C", "self-cleavage": 0.763}
{"variant": "G50A A70U", "self-cleavage": 1.05}
{"variant": "C49G G68U", "self-cleavage": 0.808}
{"variant": "C49U C64U", "self-cleavage": 1.05}
{"variant": "G50A A56U", "self-cleavage": 1.06}
{"variant": "C49A U60A", "self-cleavage": 0.745}
{"variant": "C49A U60G", "self-cleavage": 1.33}
{"variant": "C49A U69A", "self-cleavage": 0.808}
{"variant": "C49A G59U", "self-cleavage": 0.945}
{"variant": "C49A G59C", "self-cleavage": 1.08}
{"variant": "C49A A77G", "self-cleavage": 0.458}
{"variant": "C49A A77C", "self-cleavage": 0.252}
{"variant": "C49A A77U", "self-cleavage": 0.404}
{"variant": "C49A C58A", "self-cleavage": 0.986}
{"variant": "C49A C58U", "self-cleavage": 1.04}
{"variant": "C49A C58G", "self-cleavage": 0.988}
{"variant": "C49G U65A", "self-cleavage": 0.573}
{"variant": "C49G U65G", "self-cleavage": 0.489}
{"variant": "C49G A83C", "self-cleavage": 0.403}
{"variant": "C49G C86A", "self-cleavage": 0.966}
{"variant": "C49G C86U", "self-cleavage": 0.831}
{"variant": "C49U G50C", "self-cleavage": 0.991}
{"variant": "C49U G50A", "self-cleavage": 1.05}
{"variant": "C49A C75U", "self-cleavage": 0.175}
{"variant": "C49A C75G", "self-cleavage": 0.128}
{"variant": "C49A C84G", "self-cleavage": 0.743}
{"variant": "C49A C84U", "self-cleavage": 0.686}
{"variant": "C49U G68A", "self-cleavage": 0.987}
{"variant": "C49U G68C", "self-cleavage": 0.784}
{"variant": "C49G C57A", "self-cleavage": 1.19}
{"variant": "C49G A70C", "self-cleavage": 0.415}
{"variant": "C49G A70U", "self-cleavage": 0.429}
{"variant": "C49U G53A", "self-cleavage": 0.916}
{"variant": "C49U G53C", "self-cleavage": 1.05}
{"variant": "C49A U79G", "self-cleavage": 0.665}
{"variant": "C49A U79C", "self-cleavage": 0.61}
{"variant": "C49G G67A", "self-cleavage": 0.637}
{"variant": "C49G G67U", "self-cleavage": 0.9}
{"variant": "C49A G50A", "self-cleavage": 0.929}
{"variant": "C49A G50U", "self-cleavage": 0.816}
{"variant": "C49G U69C", "self-cleavage": 0.898}
{"variant": "C49G U69G", "self-cleavage": 0.831}
{"variant": "C49G U69A", "self-cleavage": 0.798}
{"variant": "C49U G55U", "self-cleavage": 0.909}
{"variant": "C49A C86A", "self-cleavage": 1.22}
{"variant": "C49A C86U", "self-cleavage": 0.795}
{"variant": "C49G G53U", "self-cleavage": 0.723}
{"variant": "C49G G53C", "self-cleavage": 0.249}
{"variant": "C49G G53A", "self-cleavage": 0.475}
{"variant": "C49A U72G", "self-cleavage": 0.443}
{"variant": "C49A U72C", "self-cleavage": 0.32}
{"variant": "C49A U72A", "self-cleavage": 0.225}
{"variant": "C49U A51U", "self-cleavage": 0.867}
{"variant": "C49U A51C", "self-cleavage": 0.712}
{"variant": "C49A U65A", "self-cleavage": 0.751}
{"variant": "C49U C66A", "self-cleavage": 0.984}
{"variant": "C49A C62G", "self-cleavage": 0.128}
{"variant": "C49G G52U", "self-cleavage": 0.48}
{"variant": "C49G C61U", "self-cleavage": 0.432}
{"variant": "C49G C61A", "self-cleavage": 0.848}
